For 79 sequences, switch fluorescence ratio results are on record in the supplement of paper PMC10126150.

± gives the standard deviation of the averaged measurements.
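Further: ATP exposure 15 min at 22 °C before imaging.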

The test system of the data set is ATP. As to the kind of experiment: switch fluorescence ratio, 500 uM ATP over buffer (Cy3 cluster intensity, sum of 5 cycles each) (fold (ratio)); higher = stronger signal-on switching upon ATP binding; sequences stand for … in TCGTCGGCAGCGTCAGATGTGTATAAGAGACAGTTTTTTTTTTTTTTTTTTTTTTTTT…TC. Particulars: aptamer strand: ATP DNA aptamer (quencher-CACCTGGGGGAGTATTGCGGAGGAAGG + anchor), 100 nM annealed; ATP concentration: 500 uM. In short, it runs like this: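 The fluorescence ratio divides summed target-cycle Cy3 intensity by summed buffer-cycle Cy3 intensity for each cluster and is averaged per switch-domain sequence. Cy3-labelled switching-strand clusters on a modified Illumina MiSeq flow-cell were annealed to 100 nM quencher-labelled ATP aptamer, then imaged in selection buffer and again after 15 min with 500 uM ATP at 22 °C. Five such cycles were run, with NaOH stripping and re-annealing between them, and clusters outside 100-1000 RFU were excluded.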
For the sequence AGGATCATGT, the switch fluorescence ratio was 0.966 ± 0.042.

GAGGCGGCGG: the switch fluorescence ratio stood at 1.067 ± 0.0051.

For the sequence ATGTAGGAAC, the switch fluorescence ratio was found to be 0.999 ± 0.012.

Turning to GGGGCGCCTG, the switch fluorescence ratio worked out at 1.01 ± 0.048.

Turning to ACGTGGGTAG, the switch fluorescence ratio was found to be 0.987 ± 0.041.

Turning to CCTCGTGTTT, the switch fluorescence ratio is 1.08 ± 0.0061.

In the case of ATTTTGAGGT, the switch fluorescence ratio turned out to be 0.987 ± 0.018.

Consider TTATATTAAG, for which the switch fluorescence ratio is 1.01 ± 0.031.

Consider GCGTGCTGTA, for which the switch fluorescence ratio came to 1.013 ± 0.006.

Turning to TGGTTGGGAG, the switch fluorescence ratio worked out at 1.01 ± 0.035.

As to CGGAGGGGGT, the switch fluorescence ratio was 1.016 ± 0.0052.

With CTATTACTTA, the switch fluorescence ratio was 1.02 ± 0.032.

Consider GGTCAAAGTG, for which the switch fluorescence ratio turned out to be 1.004 ± 0.0058.

Consider AAGTTTACAT, for which the switch fluorescence ratio stood at 1.01 ± 0.026.

For the sequence GATGTTTGTG, the switch fluorescence ratio was 0.992 ± 0.045.

On to AGTGATTGAA, for which the switch fluorescence ratio worked out at 0.987 ± 0.033.

For TATAAGGAGG, the switch fluorescence ratio was found to be 0.9935 ± 0.0033.

On to GGCATCTGGG, for which the switch fluorescence ratio is 1.026 ± 0.0011.

For the sequence TGTTAGAGGC, the switch fluorescence ratio was 1.03 ± 0.1.

Turning to TATGTGTTGC, the switch fluorescence ratio worked out at 1.03 ± 0.023.

Regarding TGCGGCGACG, the switch fluorescence ratio came to 0.993 ± 0.015.

For the sequence CGCCATATTT, the switch fluorescence ratio came to 1.03 ± 0.016.

Regarding GATGACCTTT, the switch fluorescence ratio is 1.07 ± 0.14.

In the case of TTGACCGCTG, the switch fluorescence ratio stood at 1.16 ± 0.03.

For the sequence GGTTTAGATA, the switch fluorescence ratio was 0.987 ± 0.031.

On to TATGATAACT, for which the switch fluorescence ratio was 1.031 ± 0.0077.

As for TTTTTATTCT, the switch fluorescence ratio worked out at 1.02 ± 0.02.

TTTGAGGTTT: the switch fluorescence ratio was 1.01 ± 0.011.

In the case of TTGTGGTACG, the switch fluorescence ratio is 0.981 ± 0.041.

Consider TACAAGGAGA, for which the switch fluorescence ratio was found to be 1 ± 0.012.

Turning to AAAACGCAGG, the switch fluorescence ratio stood at 1.02 ± 0.053.

On to TGGTTAACTG, for which the switch fluorescence ratio was found to be 1.13 ± 0.16.

As for TTTTCTGCCG, the switch fluorescence ratio amounted to 1.03 ± 0.045.

Regarding GCTTTTAAGT, the switch fluorescence ratio came to 0.99809 ± 0.00068.

As for CGGATTGAAG, the switch fluorescence ratio was determined as 1.007 ± 0.0092.

For the sequence CTAAGTTCTT, the switch fluorescence ratio worked out at 0.987 ± 0.008.

As to ATAAGATTGC, the switch fluorescence ratio came out at 0.991 ± 0.042.

With ATTGGTAGGG, the switch fluorescence ratio turned out to be 0.9858 ± 0.004.

Consider TCACGGGCAG, for which the switch fluorescence ratio stood at 0.978 ± 0.012.

Take ATAGTAGTAG: the switch fluorescence ratio worked out at 0.998 ± 0.011.

For GTTGGACAGC, the switch fluorescence ratio turned out to be 1.01 ± 0.023.

On to ACGTTTGAGT, for which the switch fluorescence ratio stood at 0.99 ± 0.016.

Regarding CTCTGTATGT, the switch fluorescence ratio worked out at 1.035 ± 0.0081.

As to AGGTGCTTGA, the switch fluorescence ratio came out at 0.975 ± 0.078.

For the sequence TGGGGGCCGG, the switch fluorescence ratio came out at 1.02 ± 0.039.

On to GTGTACTCAT, for which the switch fluorescence ratio is 1.01 ± 0.035.

On to AGAATGGAGA, for which the switch fluorescence ratio turned out to be 1 ± 0.013.

On to GTAGGTTATG, for which the switch fluorescence ratio was 1.007 ± 0.0081.

With AGTATGAGGG, the switch fluorescence ratio worked out at 1 ± 0.076.

Regarding AGTACGTCTC, the switch fluorescence ratio is 1.04 ± 0.0099.

Take AGGGGGGCT: the switch fluorescence ratio was found to be 1.01 ± 0.031.

For the sequence AAAATTGTTG, the switch fluorescence ratio came out at 0.988 ± 0.049.

On to AGTTATCTTA, for which the switch fluorescence ratio is 1.02 ± 0.011.

Regarding TAAGTGGGTT, the switch fluorescence ratio was 0.992 ± 0.034.

As for ATATTCTTTG, the switch fluorescence ratio was determined as 0.997 ± 0.016.

Take GCCGTCTGCG: the switch fluorescence ratio is 0.957 ± 0.011.

Consider GAGGAAGGGG, for which the switch fluorescence ratio was determined as 1 ± 0.016.

For the sequence AATTTATAGC, the switch fluorescence ratio was 0.977 ± 0.034.

Take TAGGGAGTCA: the switch fluorescence ratio came to 0.971 ± 0.019.

For GATTTGAGGC, the switch fluorescence ratio came to 0.987 ± 0.018.

Consider TTGGTCCGTT, for which the switch fluorescence ratio stood at 1.02 ± 0.045.

Turning to TAAGGCTGAA, the switch fluorescence ratio was 1.02 ± 0.039.

For the sequence GGGGCGGGCC, the switch fluorescence ratio was determined as 0.971 ± 0.021.

As for TTAGTTGGAC, the switch fluorescence ratio came out at 1.03 ± 0.038.

Regarding AAAGTAGTAA, the switch fluorescence ratio was 1.01 ± 0.037.

With AACGAAACTT, the switch fluorescence ratio amounted to 1.123 ± 0.0042.

ACGGTGGGTA: the switch fluorescence ratio is 1 ± 0.038.

In the case of CCTGTGATAT, the switch fluorescence ratio worked out at 1.3 ± 0.031.

For AATGAGGGTA, the switch fluorescence ratio worked out at 1.04 ± 0.019.

On to GGGATCTGGT, for which the switch fluorescence ratio was determined as 1.002 ± 0.0098.

As to TTTAGTGACA, the switch fluorescence ratio came out at 0.9978 ± 0.0036.

Take TTATTTTTCT: the switch fluorescence ratio was determined as 1.01 ± 0.032.

On to TCATTTGTTG, for which the switch fluorescence ratio was determined as 1.01 ± 0.035.

As to ACATTGGCGG, the switch fluorescence ratio was 0.993 ± 0.066.

Consider TTTTCCCCGT, for which the switch fluorescence ratio came to 1.38 ± 0.56.

For the sequence TTAAGAGGTA, the switch fluorescence ratio is 1.002 ± 0.0039.

Consider GGGGGCTTCG, for which the switch fluorescence ratio amounted to 0.992 ± 0.048.

As for GCGGGGGCGG, the switch fluorescence ratio is 1.01 ± 0.018.

In the case of ATAGTATAAG, the switch fluorescence ratio worked out at 1.002 ± 0.0073.
